Sequences and labels used below:
T1: EsCas13d, nuclease-dead (Eubacterium siraeum, UniProt B0MS50, R295A;H300A;R849A;H854A)
T1 sequence: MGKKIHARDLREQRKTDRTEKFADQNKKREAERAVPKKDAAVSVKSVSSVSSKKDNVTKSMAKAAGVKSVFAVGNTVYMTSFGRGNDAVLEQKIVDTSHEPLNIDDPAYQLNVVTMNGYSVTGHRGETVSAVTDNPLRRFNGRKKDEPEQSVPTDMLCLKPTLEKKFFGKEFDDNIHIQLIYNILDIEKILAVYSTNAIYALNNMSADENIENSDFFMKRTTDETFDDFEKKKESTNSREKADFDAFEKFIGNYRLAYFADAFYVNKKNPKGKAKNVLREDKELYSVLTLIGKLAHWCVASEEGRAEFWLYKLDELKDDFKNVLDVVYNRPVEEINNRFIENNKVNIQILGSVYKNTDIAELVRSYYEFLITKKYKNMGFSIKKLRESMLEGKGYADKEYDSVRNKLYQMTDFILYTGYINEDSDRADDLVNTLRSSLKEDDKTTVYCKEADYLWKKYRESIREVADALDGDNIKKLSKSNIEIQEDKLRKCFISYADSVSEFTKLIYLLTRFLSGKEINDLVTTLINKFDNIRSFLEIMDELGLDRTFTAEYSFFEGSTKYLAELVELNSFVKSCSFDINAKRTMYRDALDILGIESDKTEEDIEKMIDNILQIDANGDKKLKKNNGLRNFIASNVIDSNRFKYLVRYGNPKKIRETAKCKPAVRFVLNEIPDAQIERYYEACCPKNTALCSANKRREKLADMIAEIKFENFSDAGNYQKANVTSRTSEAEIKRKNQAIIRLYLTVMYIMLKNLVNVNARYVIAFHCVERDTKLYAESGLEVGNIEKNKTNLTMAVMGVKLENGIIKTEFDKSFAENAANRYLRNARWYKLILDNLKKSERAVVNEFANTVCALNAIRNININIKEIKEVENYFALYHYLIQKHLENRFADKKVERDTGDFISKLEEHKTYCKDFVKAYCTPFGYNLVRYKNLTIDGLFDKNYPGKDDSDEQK

B1: target 1 MT 5'PFS CUU 3'PFS UGC (mixed)
RNA 1: CACCCGUGCAAAAAUGCAGGGGUCUAAAACUGAGCGGAUAACCUCUCUAUGG
RNA 2: GGGAAUGGAUCCACAUCUACGAAUUCCUUCCAUAGAGAGGUUAUCCGCUCAUGCAGAUCGGAAGAGCACACGU
B2: target 1 insU 3' of 18,insG 3' of 16 (mixed)
RNA 1: CACCCGUGCAAAAAUGCAGGGGUCUAAAACUGAGCGGAUAACCUCUCUAUGG
RNA 2: GGGAAUGGAUCCACAUCUACGAAUUCGUACCAUAUGAGGAGGUUAUCCGCUCACCGAGAUCGGAAGAGCACACGU
B3: target 1 MT 5'PFS UCG 3'PFS CAC (mixed)
RNA 1: CACCCGUGCAAAAAUGCAGGGGUCUAAAACUGAGCGGAUAACCUCUCUAUGG
RNA 2: GGGAAUGGAUCCACAUCUACGAAUUCUCGCCAUAGAGAGGUUAUCCGCUCACACAGAUCGGAAGAGCACACGU
B4: target 1 MT 5'PFS GUA 3'PFS ACA (mixed)
RNA 1: CACCCGUGCAAAAAUGCAGGGGUCUAAAACUGAGCGGAUAACCUCUCUAUGG
RNA 2: GGGAAUGGAUCCACAUCUACGAAUUCGUACCAUAGAGAGGUUAUCCGCUCAACAAGAUCGGAAGAGCACACGU
B5: target 1 MT 5'PFS CUU 3'PFS AGU (mixed)
RNA 1: CACCCGUGCAAAAAUGCAGGGGUCUAAAACUGAGCGGAUAACCUCUCUAUGG
RNA 2: GGGAAUGGAUCCACAUCUACGAAUUCCUUCCAUAGAGAGGUUAUCCGCUCAAGUAGAUCGGAAGAGCACACGU
B6: target 1 MT 5'PFS UGC 3'PFS AGA (mixed)
RNA 1: CACCCGUGCAAAAAUGCAGGGGUCUAAAACUGAGCGGAUAACCUCUCUAUGG
RNA 2: GGGAAUGGAUCCACAUCUACGAAUUCUGCCCAUAGAGAGGUUAUCCGCUCAAGAAGAUCGGAAGAGCACACGU
B7: target 1 MT 5'PFS ACA 3'PFS UCU (mixed)
RNA 1: CACCCGUGCAAAAAUGCAGGGGUCUAAAACUGAGCGGAUAACCUCUCUAUGG
RNA 2: GGGAAUGGAUCCACAUCUACGAAUUCACACCAUAGAGAGGUUAUCCGCUCAUCUAGAUCGGAAGAGCACACGU
B8: target 1 MT 5'PFS AGG 3'PFS AUU (mixed)
RNA 1: CACCCGUGCAAAAAUGCAGGGGUCUAAAACUGAGCGGAUAACCUCUCUAUGG
RNA 2: GGGAAUGGAUCCACAUCUACGAAUUCAGGCCAUAGAGAGGUUAUCCGCUCAAUUAGAUCGGAAGAGCACACGU
B9: target 1 MT 5'PFS GUA 3'PFS ACU (mixed)
RNA 1: CACCCGUGCAAAAAUGCAGGGGUCUAAAACUGAGCGGAUAACCUCUCUAUGG
RNA 2: GGGAAUGGAUCCACAUCUACGAAUUCGUACCAUAGAGAGGUUAUCCGCUCAACUAGAUCGGAAGAGCACACGU
B10: target 1 MT 5'PFS GAA 3'PFS UUC (mixed)
RNA 1: CACCCGUGCAAAAAUGCAGGGGUCUAAAACUGAGCGGAUAACCUCUCUAUGG
RNA 2: GGGAAUGGAUCCACAUCUACGAAUUCGAACCAUAGAGAGGUUAUCCGCUCAUUCAGAUCGGAAGAGCACACGU
B11: target 1 MT 5'PFS CAC 3'PFS ACA (mixed)
RNA 1: CACCCGUGCAAAAAUGCAGGGGUCUAAAACUGAGCGGAUAACCUCUCUAUGG
RNA 2: GGGAAUGGAUCCACAUCUACGAAUUCCACCCAUAGAGAGGUUAUCCGCUCAACAAGAUCGGAAGAGCACACGU
B12: target 1 MT 5'PFS GAC 3'PFS ACU (mixed)
RNA 1: CACCCGUGCAAAAAUGCAGGGGUCUAAAACUGAGCGGAUAACCUCUCUAUGG
RNA 2: GGGAAUGGAUCCACAUCUACGAAUUCGACCCAUAGAGAGGUUAUCCGCUCAACUAGAUCGGAAGAGCACACGU
B13: target 1 insU 3' of 17,insA 3' of 5 (mixed)
RNA 1: CACCCGUGCAAAAAUGCAGGGGUCUAAAACUGAGCGGAUAACCUCUCUAUGG
RNA 2: GGGAAUGGAUCCACAUCUACGAAUUCGUACCAUAGUAGAGGUUAUCCGACUCACCGAGAUCGGAAGAGCACACGU
B14: target 1 MT 5'PFS CAC 3'PFS ACG (mixed)
RNA 1: CACCCGUGCAAAAAUGCAGGGGUCUAAAACUGAGCGGAUAACCUCUCUAUGG
RNA 2: GGGAAUGGAUCCACAUCUACGAAUUCCACCCAUAGAGAGGUUAUCCGCUCAACGAGAUCGGAAGAGCACACGU
B15: target 1 MT 5'PFS GUA 3'PFS ACC (mixed)
RNA 1: CACCCGUGCAAAAAUGCAGGGGUCUAAAACUGAGCGGAUAACCUCUCUAUGG
RNA 2: GGGAAUGGAUCCACAUCUACGAAUUCGUACCAUAGAGAGGUUAUCCGCUCAACCAGAUCGGAAGAGCACACGU
B16: target 1 MT 5'PFS CAC 3'PFS CAA (mixed)
RNA 1: CACCCGUGCAAAAAUGCAGGGGUCUAAAACUGAGCGGAUAACCUCUCUAUGG
RNA 2: GGGAAUGGAUCCACAUCUACGAAUUCCACCCAUAGAGAGGUUAUCCGCUCACAAAGAUCGGAAGAGCACACGU
B17: target 1 MT 5'PFS UCG 3'PFS CAA (mixed)
RNA 1: CACCCGUGCAAAAAUGCAGGGGUCUAAAACUGAGCGGAUAACCUCUCUAUGG
RNA 2: GGGAAUGGAUCCACAUCUACGAAUUCUCGCCAUAGAGAGGUUAUCCGCUCACAAAGAUCGGAAGAGCACACGU
B18: target 1 MT 5'PFS GUA 3'PFS ACG (mixed)
RNA 1: CACCCGUGCAAAAAUGCAGGGGUCUAAAACUGAGCGGAUAACCUCUCUAUGG
RNA 2: GGGAAUGGAUCCACAUCUACGAAUUCGUACCAUAGAGAGGUUAUCCGCUCAACGAGAUCGGAAGAGCACACGU
B19: target 1 MT 5'PFS GAA 3'PFS UUA (mixed)
RNA 1: CACCCGUGCAAAAAUGCAGGGGUCUAAAACUGAGCGGAUAACCUCUCUAUGG
RNA 2: GGGAAUGGAUCCACAUCUACGAAUUCGAACCAUAGAGAGGUUAUCCGCUCAUUAAGAUCGGAAGAGCACACGU
B20: target 1 MT 5'PFS ACA 3'PFS UCG (mixed)
RNA 1: CACCCGUGCAAAAAUGCAGGGGUCUAAAACUGAGCGGAUAACCUCUCUAUGG
RNA 2: GGGAAUGGAUCCACAUCUACGAAUUCACACCAUAGAGAGGUUAUCCGCUCAUCGAGAUCGGAAGAGCACACGU
B21: target 1 MT 5'PFS GAC 3'PFS ACA (mixed)
RNA 1: CACCCGUGCAAAAAUGCAGGGGUCUAAAACUGAGCGGAUAACCUCUCUAUGG
RNA 2: GGGAAUGGAUCCACAUCUACGAAUUCGACCCAUAGAGAGGUUAUCCGCUCAACAAGAUCGGAAGAGCACACGU
B22: target 1 MT 5'PFS GAC 3'PFS ACC (mixed)
RNA 1: CACCCGUGCAAAAAUGCAGGGGUCUAAAACUGAGCGGAUAACCUCUCUAUGG
RNA 2: GGGAAUGGAUCCACAUCUACGAAUUCGACCCAUAGAGAGGUUAUCCGCUCAACCAGAUCGGAAGAGCACACGU
B23: target 1 MT 5'PFS AGG 3'PFS AUA (mixed)
RNA 1: CACCCGUGCAAAAAUGCAGGGGUCUAAAACUGAGCGGAUAACCUCUCUAUGG
RNA 2: GGGAAUGGAUCCACAUCUACGAAUUCAGGCCAUAGAGAGGUUAUCCGCUCAAUAAGAUCGGAAGAGCACACGU
B24: target 1 MT 5'PFS GAC 3'PFS ACG (mixed)
RNA 1: CACCCGUGCAAAAAUGCAGGGGUCUAAAACUGAGCGGAUAACCUCUCUAUGG
RNA 2: GGGAAUGGAUCCACAUCUACGAAUUCGACCCAUAGAGAGGUUAUCCGCUCAACGAGAUCGGAAGAGCACACGU
B25: target 1 MT 5'PFS GAA 3'PFS UUG (mixed)
RNA 1: CACCCGUGCAAAAAUGCAGGGGUCUAAAACUGAGCGGAUAACCUCUCUAUGG
RNA 2: GGGAAUGGAUCCACAUCUACGAAUUCGAACCAUAGAGAGGUUAUCCGCUCAUUGAGAUCGGAAGAGCACACGU
B26: target 1 MT 5'PFS GAA 3'PFS UUU (mixed)
RNA 1: CACCCGUGCAAAAAUGCAGGGGUCUAAAACUGAGCGGAUAACCUCUCUAUGG
RNA 2: GGGAAUGGAUCCACAUCUACGAAUUCGAACCAUAGAGAGGUUAUCCGCUCAUUUAGAUCGGAAGAGCACACGU
B27: target 1 MT 5'PFS UCG 3'PFS CAU (mixed)
RNA 1: CACCCGUGCAAAAAUGCAGGGGUCUAAAACUGAGCGGAUAACCUCUCUAUGG
RNA 2: GGGAAUGGAUCCACAUCUACGAAUUCUCGCCAUAGAGAGGUUAUCCGCUCACAUAGAUCGGAAGAGCACACGU

This passage reports Kd results from article PMC10786891, “Massively parallel profiling of RNA-targeting CRISPR-Cas13d”.

In the data set the target is T1, EsCas13d, nuclease-dead. In words: crRNA (strand 1, pre-loaded); Mg2+; 40 mM Tris-HCl pH 7.5, 150 mM NaCl, 6 mM MgCl2, 1 mM DTT, 0.1% Tween-20, 0.2 mg/ml BSA; 25 C; 10 min per concentration, then washed. Particulars: tags: His6-TwinStrep-SUMO cleaved; N-terminal SNAP kept (SNAP-Surface 488); label: 3' end held by stalled T7 RNA polymerase.
Consider B1, for which the affinity, expressed as Kd, was 22 ± 7 nM. To B2 belongs 73 ± 31 nM; to B3, about 43.5 nM; to B4, 17.6 ± 1.45 nM. Turning to B5, the Kd turned out to be 48 ± 12.5 nM. Take B6: the equilibrium dissociation constant (Kd) was about 23 nM.

B7 yielded a dissociation constant Kd of 7.4 ± 2.8 nM. B8 registered a Kd of 26.5 ± 7 nM. Regarding B9, the Kd is 10.6 ± 0.75 nM. B10 yielded an equilibrium dissociation constant (Kd) of 51 ± 21 nM. In turn, B11 showed an equilibrium dissociation constant (Kd) of about 45.5 nM. The result for B12 reads 14 ± 5 nM; that for B13, 19 ± 4 nM; that for B14, about 22 nM.

In turn, B15 yielded a dissociation constant Kd of 7.95 ± 0.8 nM.

B16 displayed a dissociation constant (Kd) of 12 ± 6 nM. Take B17: the dissociation constant Kd was about 44 nM. Regarding B18, the dissociation constant Kd came out at 11 ± 0.92 nM. The result for B19 reads 16 ± 2.15 nM; that for B20, 7.7 ± 1.55 nM; that for B21, about 46 nM. The molecule B22 yielded a Kd of 75.5 ± 37.5 nM.

B23 came in with a Kd of 26.5 ± 8.5 nM. Regarding B24, the affinity, expressed as Kd, was 16.7 ± 3.95 nM.

For the molecule B25, binding was put at a Kd of 12.8 ± 2.6 nM. For B26, the dissociation constant (Kd) worked out at 15.3 ± 2.75 nM. B27: the Kd was about 80 nM.
